System: MS2 coat protein
Test: apparent KD of MS2 coat protein; designed switch direction (-1 OFF switch, 1 ON switch): -1; higher = weaker reporter binding
How it was run: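 Apparent KD, taken as the median over clusters for each design, was obtained by curve-fitting normalised cluster fluorescence. Designed RNA switches had been transcribed on Illumina chips by stalled E. coli RNA polymerase and titrated with SNAP-549-labelled MS2 coat protein, doubling from 0.7 or 1.5 nM to 3 µM.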

[1] = input ligand: microRNA oligo, concentration not stated
[2] = Eterna round: R95, input ligand: FMN 200 uM
[3] = Eterna round: R95, input ligand: microRNA oligo, concentration not stated
[4] = Eterna round: R95, input ligand: none

| Sequence | apparent KD of MS2 coat protein (input ligand: FMN 200 uM) | apparent KD of MS2 coat protein [1] | apparent KD of MS2 coat protein (input ligand: none) | apparent KD of MS2 coat protein [2] | apparent KD of MS2 coat protein [3] | apparent KD of MS2 coat protein [4] |
| --- | --- | --- | --- | --- | --- | --- |
| UCGAGUGGUUAGGAUAUCAUUGGUGCAUAUCAUUGAGAAGGAACUACAUGAGGAUCACCCAUGUGGCAGUGAUA [Abezaso] (Eterna round: R96, puzzle: Exclusion 6) | 152 nM | 26.4 nM | 31.9 nM |  |  |  |
| UUUAAGUAAGGAUAUGCGAGCCACGGAAAUAAAACGUGGAGGUAGAAGGUACAUGAGGAUCACCCAUGUAAAAC [Mod of Anonveat 23 - Jieux - Exclusion 4] (Eterna round: R97, puzzle: Exclusion 4) | 21.8 nM |  | 23.1 nM |  |  |  |
| CCAUAGUGAGGAUAUGUAAACGUGUUGGCGAAAUCAGCACGGCAGAAGGCACAUGAGGAUCACCCAUGUCCUGA [Eternabot (L2) Solution 45] (Eterna round: R97, puzzle: Exclusion 4) | 25.9 nM |  | 20.8 nM |  |  |  |
| GUAACAUGCUGGUGAUCAUACAUGAGGAUCACCCAUGUAACAAGCUUUUUGCUCGUCUUAUAAGAUCACCAGCAUGU [Stov1/9-A3] (Eterna round: R97, puzzle: Sensor, turn-off variant 1) | 12.2 nM |  | 13.6 nM |  |  |  |
| AAUACUAACAGCUGACUGUUAGUACUGUAGGUUUGUGUUACAUGAGGAUCACCCAUGUCCUCAUAGGCUCGUCUUGU [Mat - Sensor v3 - Turn-off var 2 - D98] (puzzle: Sensor v3, turn-off variant 2) |  |  |  | 586 nM | 322 nM | 697 nM |
| UAAUUGAUUAAUAGAUUAUACAUGAGGAUCACCCAUGUAGGUCCUACGUGCCAUUUAAGUAGCUCGUCUUAUUAUUA [Sensor-V1 #66] (Eterna round: R97, puzzle: Sensor, turn-off variant 1) | 40.2 nM |  | 46.5 nM |  |  |  |
| AACUCCUCAGGAUAUCUGAAAAUGGACAUGAGGAUCACCCAUGUGAAAGUCACAUCCGGAGGAGAAGGGAGGAGAA [Diororlera] (Eterna round: R97, puzzle: Exclusion 5) | 44.6 nM |  | 16 nM |  |  |  |
| UCCGUGUCAGGAUAUGCUAGCGCAAAGUUGCCCGCGCUGUAGCAGAAGGGACAUGAGGAUCACCCAUGUCUACA [Exclusion 4 (Mod of Nando's EX4 C.10 cleaner dot)] (Eterna round: R97, puzzle: Exclusion 4) | 70.7 nM |  | 20.4 nM |  |  |  |
| GUAGUGUUAGGAUAUCUGCCUCCGAGGUAUUCCAUGAAUAGAGAGAAGGGACAUGAGGAUCACCCAUGUGGGUA [Eternabot (L2) Solution 92] (Eterna round: R97, puzzle: Exclusion 4) | 90.5 nM |  | 295 nM |  |  |  |
| AUUGAUGUUGAGGAUAUGCAUAUAUUUAUACUAGCAGAAGGCGAUACAUGAGGAUCACCCAUGUUCAUGGAAGU [JR_E6_Sub093] (puzzle: Exclusion 6) |  |  |  | 39.1 nM | 24.7 nM | 28 nM |
| CACCGUAACAGAGGAUAUGAAACAUGAGGAUCACCCAUGUAAUAAAUGAGAAUUUCGAAUGUACCUCAGAAGGCUGAAACCGGC [Ostricism 82 - Jieux - Exclusion NG 2] (Eterna round: R96, puzzle: Exclusion NG 2) | 56.8 nM | 31.9 nM | 43 nM |  |  |  |
| GGAAGCAAGGAAUAACUAAACAUGAGGAUCACCCAUGUAGAGCCCAUGUGCACGCAAAGCGUGCAAGCUCGUCUUAU [AK-miRNA-r3-17] (Eterna round: R97, puzzle: Sensor, turn-off variant 1) | 64.4 nM |  | 80.8 nM |  |  |  |
| UAUAUAUAGUAAGGAUAUGUAUUAAUUUUACAAACAGAAGGUACUGACAUGAGGAUCACCCAUGUUUUAGUGUGGGCAUGUAGA [JMF's solution 89] (Eterna round: R96, puzzle: Exclusion NG 1) |  | 45.9 nM |  |  |  |  |
| UUUAUUAAUUAAUAUAAUAAGAUCACAUGAGGAUCACCCAUGUAGGAUAUCAGCUCGUUUAGAGCUGAGAAGGACAUAAUUAUA [ExNG3/1-B2] (Eterna round: R96, puzzle: Exclusion NG 3) | 135 nM | 33.6 nM | 35.9 nM |  |  |  |
| ACAUGAGGAUCACCCAUGUUAACGAAAAGGCUCAUGUAGAGUGAGGAUAUGUGAGACGAACGAGAACAGAAGGCACAAGACAGG [Deportation 2 - Jieux - Exclusion NG 3] (Eterna round: R96, puzzle: Exclusion NG 3) | 24.2 nM | 15.2 nM | 22.3 nM |  |  |  |
| UCUUGUGUUGAGGAUAUGCGCCGGCUCGCUGGCGCAGAAGGCGGCACAUGAGGAUCACCCAUGUCAGUUCGCGC [salish99_ex6_r004_007] (Eterna round: R97, puzzle: Exclusion 6) | 56.3 nM |  | 205 nM |  |  |  |
| CAGUACUGAGGAUAUACAUGAGGAUCACCCAUGUGUGUGAGUUUUGGAUGAAUGUUAUGUAGAAGGCGGUGCUG [JR_Ex3_Sub036] (Eterna round: R97, puzzle: Exclusion 3) | 179 nM |  | 466 nM |  |  |  |

| Sequence | apparent KD of MS2 coat protein (input ligand: FMN 200 uM) | apparent KD of MS2 coat protein [1] | apparent KD of MS2 coat protein (input ligand: none) | apparent KD of MS2 coat protein [2] | apparent KD of MS2 coat protein [3] | apparent KD of MS2 coat protein [4] |
| --- | --- | --- | --- | --- | --- | --- |
| GUGUACGGAGGAUAUGUAUGGGCAGGCUGACCUGCAGCUUCACAUGAGGAUCACCCAUGUAGAAGGCUGUGCAC [JL-ex2-2.09 Brourd mod] (puzzle: Exclusion 2) |  |  |  |  | 10.7 nM |  |
| CCAUAAAGGAAGGAUAUGCUAGACGAAAGUCUAGCAGAAGGUCCUACAUGAGGAUCACCCAUGUGGCCUCAUGG [Mat - Exclusion 6 - Eli Mod - D49] (Eterna round: R97, puzzle: Exclusion 6) | 116 nM |  | 198 nM |  |  |  |
| AGUACUAUCACGAAAGUGAUAGUACAAUAAGCUUGUGAAACAUGAGGAUCACCCAUGUCCUCAUAAGCUCGUCUUAU [JL turnoff v2 77] (Eterna round: R96, puzzle: Sensor v2, turn-off variant 2) | 16.1 nM | 463 nM | 18.7 nM |  |  |  |
| GCAAUUUCAAAGGAUAUACCUAAUUAACUAUCGGUAGAAGGUUGGACAUGAGGAUCACCCAUGUGCUCACACUU [Eternabot (L2) Solution 67] (Eterna round: R97, puzzle: Exclusion 6) | 15.9 nM |  | 15.6 nM |  |  |  |
| GAGUGACAUGAGGAUCACCCAUGUGAGGAUAUCGGACGGACCAAAUUAACAUCCGCCGCGAGAAGGCACAUCGG [Exclusion 1 V22] (puzzle: Exclusion 1) |  |  |  |  | 69.4 nM |  |
| CCACGACAUGAGGAUCACCCAUGUGAGGAUAUGGCCUGAAAAGCGUGAGCUGAAUCAAUCAGAAGGCGCGUGGG [salish99_ex1_r4_059_4A's] (Eterna round: R97, puzzle: Exclusion 1) | 109 nM |  | 42 nM |  |  |  |
| CGGCGGGCAGGAUAUGGUAAUAAUUACAUGAGGAUCACCCAUGUAGAUAUAUGGGAAUAACCAGAAGGGCUUGUUG [-20.5, -20.3 kcal, A 32%] (Eterna round: R97, puzzle: Exclusion 5) | 19.7 nM |  | 28.7 nM |  |  |  |
| GCCGAAAGUGUGAGGAUAUACCUAUGGAAACAUAGGUAGAAGGCACAUGAGGAUCACCCAUGUGUCCAAACGGC [Mat - Exclusion 4 - Eli Mod - D23] (Eterna round: R97, puzzle: Brourd's mod of Exclusion 4) | 41.5 nM |  | 16.5 nM |  |  |  |
| CCCACCUCAUGAACAACAUGAGGAUCACCCAUGUUGAAGACUAAGGAUAUCGUACUCGAUGAAUGCGAGAAGGUGGCACUUCGA [Eternabot solution 36] (Eterna round: R96, puzzle: Exclusion NG 3) | 37.3 nM | 20.7 nM | 28.7 nM |  |  |  |
| AUGUGCACGCUGCGGUCCUACAUGAGGAUCACCCAUGUGGUCUGGUGGCGUGGGUCACCGGACUUGGCUCGUCUUGA [salish99_S_TOV1_R5_055] (Eterna round: R97, puzzle: Sensor, turn-off variant 1) | 56 nM |  | 51.9 nM |  |  |  |
| AGCCCGCAAGGAGGAUAUUAACAUGAGGAUCACCCAUGUAAUCACUAGAUAGCACGGGCGGUUCGUAAGAAGGUCUAGUGGAAU [Eternabot solution 24] (Eterna round: R96, puzzle: Exclusion NG 2) | 35.4 nM | 22.3 nM | 33.1 nM |  |  |  |
| ACAUGAGGAUCACCCAUGUGACCACAAUGGCUGAUGUAACAACAGGAUAUGCGUGAAUAUCUAACGCAGAAGGGUUUUGACUGG [Deportation 59 - Jieux - Exclusion NG 3] (Eterna round: R96, puzzle: Exclusion NG 3) | 84.5 nM | 71.5 nM | 91.1 nM |  |  |  |
| GCCUAACAUGAGGAUCACCCAUGUCAGGAUAUCCAUAAACACCGGGAUGUACUGGACGGGAGAAGGGACAGGGC [Escelazari] (Eterna round: R97, puzzle: Exclusion 1) | 53.5 nM |  | 51.4 nM |  |  |  |
| GAACCAUGAGGAUAUUCUGAUCCUUACAUGAGGAUCACCCAUGUGAGUACAAAAGUACUCGAAGAAGGCAUGGUUC [Omei Ex5 B1] (Eterna round: R97, puzzle: Exclusion 5) | 616 nM |  | 2130 nM |  |  |  |
| GCGCUGCGAGGAUAUACAUGAGGAUCACCCAUGUGUCGGCAGCCAUGGUAGUACAAAUGUAGAAGGCGCGUAAA [EX3 #51] (Eterna round: R97, puzzle: Exclusion 3) | 202 nM |  | 165 nM |  |  |  |
| CGUCUGUAAGGAUAUGGUUACAUCGACAUGAGGAUCACCCAUGUGACGUGGGACUAGUGAUUAGAAGGUACGAACG [EX5 #65] (Eterna round: R97, puzzle: Exclusion 5) | 55.2 nM |  | 59.4 nM |  |  |  |

Reference: the supplement of paper PMC9170038
